System: ORC (origin recognition complex) (Saccharomyces cerevisiae)
Assay: EMSA
Settings: 25 mM Tris-HCl pH 8.0, 5 mM MgCl2, 150 mM KCl, 40 ug BSA, 5% glycerol, 5 mM DTT, 1 ug calf-thymus DNA, 2 mM ATP; 5 pM probe, ORC 0.3-30 nM; 25 C 20 min; 3.5% …

| Substance | Kd |
| --- | --- |
| ARS105 probe | > 419 nM |
| ARS201 probe | 20.1 nM |
| ARS214 probe | 41.3 nM |
| ARS219.5 probe | > 419 nM |
| ARS305 probe | 33.1 nM |
| ARS317 (HMR-E) probe | 7.22 nM |
| ARS416 (ARS1) probe | 35.1 nM |
| ARS422 probe | 9.85 nM |
| ARS423 probe | 6.76 nM |
| ARS428 probe | 91.6 nM |
| ARS512 probe | 55.1 nM |
| ARS514 probe | 4.12 nM |
| ARS516 probe | 27.8 nM |
| ARS604 probe | 61 nM |
| ARS716 probe | 39.2 nM |
| ARS720 probe | 33.9 nM |
| ARS728 probe | 8.38 nM |
| ARS818 probe | 94 nM |
| ARS822 probe | 260 nM |
| ARS824 probe | 38.1 nM |
| ARS911 probe | 87.3 nM |
| ARS920 probe | 8.65 nM |
| ARS1004 probe | 92.3 nM |

| Substance | Kd |
| --- | --- |
| ARS1005 probe | > 419 nM |
| ARS1011 probe | 11.1 nM |
| ARS1015 probe | 63.1 nM |
| ARS1021 probe | 17.9 nM |
| ARS1114 probe | 33.3 nM |
| ARS1123 probe | 12.3 nM |
| ARS1215 probe | 55.8 nM |
| ARS1307 probe | 83.7 nM |
| ARS1320 probe | 20.9 nM |
| ARS1323 probe | 58.6 nM |
| ARS1325 probe | 63 nM |
| ARS1329 probe | 76.8 nM |
| ARS1332 probe | 35.3 nM |
| ARS1405 probe | 97.2 nM |
| ARS1413 probe | 419 nM |
| ARS1420 probe | 17.8 nM |
| ARS1513 probe | 56.3 nM |
| ARS1521 probe | 90.1 nM |
| ARS1528 probe | > 419 nM |
| ARS1529.5 probe | 192 nM |
| ARS1601 probe | 32.8 nM |
| ARS1625 probe | 8.67 nM |
| ARS1631 probe | 26.8 nM |

Reference: publication PMC3772097
